According to patent US20020090382A1, “Antiviral compounds and methods” (University of Pittsburgh of the Commonwealth System of …, priority 2000, published 2002):
Positions count from the first letter of the chain named. In names and notes the source's numbering stands.

B1: L25D (protein)
chain: KYALIDASLKMADPNRFRGKDLPVDDQLTDPPGVRRVYHIQAGLPDPFQPPSLPITVYYAVLERACRSVLLNAPSEAPQIVRGASEDVRKQPYNLTIAWFRMGGNCAIPITVMEYTECSYNKSLGACPIRTQPRWNYYDSFSAVSEDNLGFLMHAPAFETAGTYLRLVKINDWTEITQFILEHRAKGSCKYALPLRIPPSACLSPQAYQQGVTVDSIGMLPRFIPENQRTVAVYSLKIAGWHGPKAPYTSTLLPPELSETPNATQPELAPEDPEDSALLEDPVGTVAPQIPPNWHIPSIQDAATPYHPPATPNNMGLIAGAVGGSLLAALVICGIVYWMHRRTRKAPKRIRLPHIREDDQPSSHQPLFY
B2: L25T (protein)
chain: B1 chain with D25T
B3: D26H (protein)
chain: B1 chain with D25L, D26H
B4: L25H (protein)
chain: B1 chain with D25H

Test system: CHO-HveA cells
Assay: Transient complementation of gD-null virus KΔUS3-8Z, entry into CHO-HveA cells (lacZ)
Type: cell-based, Chinese hamster
Conditions: relative to wild-type gD (100%) and gD− (0%); KΔUS3-8Z virus, A420 β-galactosidase
Source text: (§1) In a first transient complementation assay, several cell lines were employed. VD60 cells express wild-type gD endogenously which complements the deleted gD gene of KΔUS3-8Z for plaque formation, but only if the virus can initially infect using the gD product of the transfected gene. Thus, plaque formation on VD60 cells indicates complementation of gD's attachment/entry function by the transfected gene. CHO cells lack gD receptors and are resistant to HSV infection, but CHO cells transduced with HveA or HveC expression plasmids (CHO-HveA and CHO-HveC cells, respectively) are susceptible. KΔUS3-8Z misses the complete gD gene (US6) due to a large deletion extending from US3 to US8 and therefore offers no target for homologous recombination with transfected gD genes or the stable gD gene of VD60 cells. […] Since the progeny virus lacks gD, plaques will not form on these cells and virus entry was therefore determined by measurement of lacZ reporter gene expression.
(§2) To conduct the assay, Vero cells were transfected with LIPOFECTAMINE-PLUS (GIBCO) for 4 h at 37° C., the cell monolayers washed and incubated with DMEM/10% fetal bovine serum (FBS) for 16 h at 37° C., and the transfected cells infected with KΔUS3-8Z at an MOI of 3 for 2 h at 37° C. After removal of the medium and inactivation of residual extracellular virus by incubation of the monolayer with 0.1M glycine (pH 3.0) for 1 min at room temperature, fresh medium was added and the cells incubated at 37° C. for 48 hours. The medium was subsequently removed and temporarily stored on ice while the cells were being lysed by freeze-thawing and sonication. Cell debris was pelleted by low-speed centrifugation and the supernatant combined with the previously stored medium. Virus titers were determined on gD-complementing VD60 cells. Complementing activity was determined by infection of CHO-HveA, CHO-HveC, and control CHO-K cells. Infected cells were lysed in a buffer containing 1% NP-40, 1 mM MgCl2, 50 mM β-mercaptoethanol, and 4 mg/ml β-galatosidase substrate O-nitrophenyl β-D-galactopyranoside (ONPG, Sigma) in a total volume of 50 μl. The enzyme-substrate reaction was carried out at 37° C. and stopped by addition of an equal volume of 1M Na2CO3 after color development. β-galactosidase activity was measured by reading the absorbance at 420 nm. One hundred percent complementation was defined as the difference between the A420 values obtained for the wild-type (pSP72-gD) and negative control (pgD^−) gD plasmids. Relative complementation efficiencies were calculated as 100%×[A420(mutant)−A420(gD^−)]/[A420(wild type)−A420(gD^−)].

B1 and B2 are the same in “% Complementation CHO-HveA” value: 0% for the first, 0% for the second.

Going from B3 to B4, the “% Complementation CHO-HveA” value falls from 10% to 0%.

Test system: VD60 cells
Assay: Transient complementation of gD-null virus KΔUS3-8Z, titers on VD60 cells
Type: cell-based
Conditions: relative to wild-type gD (100%) and gD− (0%); KΔUS3-8Z virus
Source text: as §1, §2

Compared with B1, B2 is higher in “% Complementation VD60” value: 10% for the first, 14% for the second.

Going from B3 to B4, the “% Complementation VD60” value falls from 17% to 14%.

Test system: CHO-HveC cells
Assay: Transient complementation of gD-null virus KΔUS3-8Z, entry into CHO-HveC cells (lacZ)
Type: cell-based, Chinese hamster
Conditions: relative to wild-type gD (100%) and gD− (0%); KΔUS3-8Z virus, A420 β-galactosidase
Source text: as §1, §2

Going from B1 to B2, the “% Complementation CHO-HveC” value falls from 14% to 3%.

Compared with B3, B4 is higher in “% Complementation CHO-HveC” value: 11% for the first, 12% for the second.
